{
  "source": "paper doi:10.1101/2022.05.16.492059",
  "about": "(bioRxiv, 2022)",
  "target": "the molecule itself",
  "assay": "SEC-MALS",
  "data": [
    {"protein": "PGL-3 (1-452) (domain or fragment, C. elegans, UniProt G5EBV6 1-452, looked up) MEANKRQIVEVDGIKSYFFPHLAHYLASNDELLVNNIAQANKLAAFVLGATDKRPSNEEIAEMILPNDSSAYVLAAGMDVCLILGDDFRPKFDSGAEKLSQLGQAHDLAPIIDDEKKISMLARKTKLKKSNDAKILQVLLKVLGAEEAEEKFVELSELSSALDLDFDVYVLAKLLGFASEELQEEIEIIRDNVTDAFEACKPLLKKLMIEGPKIDSVDPFTQLLLTPQEESIEKAVSHIVARFEEASAVEDDESLVLKSQLGYQLIFLVVRSLADGKRDASRTIQSLMPSSVRAEVFPGLQRSVFKSAVFLASHIIQVFLGSMKSFEDWAFVGLAEDLESTWRRRAIAELLKKFRISVLEQCFSQPIPLLPQSELNNETVIENVNNALQFALWITEFYGSESEKKSLNQLQFLSPKSKNLLVDSFKKFAQGLDSKDHVNRIIESLEKSSSSE", "values": [
      {"measurement": "stoichiometry N", "result": 2}
    ]}
  ]
}
